We go through one substance from paper PMC3214626.

This experiment concerns the target Slc1-FLAG (SycE-like chaperone 1; CT043) (Chlamydia trachomatis). Description: SEC. A general note: In gel filtration, larger molecules generally elute earlier.

As a reminder, the stoichiometry N is a count of units in the complex or per binding partner. Take “Slc1-FLAG (SycE-like chaperone 1; CT043) (natural protein)”: the stoichiometry N worked out at 2.
